Data published in the supplement of paper PMC10567573.
± gives the standard deviation.

Experiment: protein stability index of a GFP-peptide fusion (GPS, HEK-293T) (PSI 1-6); higher = more stable
[1] = treatment: DMSO, c terminus: a fixed tail appended
[2] = treatment: MLN4924 1 uM, 8 h, c terminus: a fixed tail appended
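Further: 24-mer peptide tiles fused after GFP, lentivirally expressed, FACS-sorted into six equal bins by GFP/DsRed ratio, decoded by Illumina sequencing, PSI is the read-weighted mean bin number.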

Row | Sequence | protein stability index [1] | protein stability index [2] | protein stability index (treatment: DMSO, c terminus: native) | protein stability index (treatment: MLN4924 1 uM, 8 h, c terminus: native)
1 | DHWNNEKERILLVTDKTLLICKYD [TPRG1] | 2.18 ± 0.32 | 2.47 ± 0.15 |  | 
2 | LLRHGMDRLWRPSKVLSLQDLCCR [RAB40B] | 3.03 ± 0.09 | 2.97 ± 0.25 |  | 
3 | VENKEKDSNMPHFQTLQAIVSHFQ [CEP70] | 2.89 ± 0.27 | 3.18 ± 0.36 |  | 
4 | TWMLEVCEEQKCEEEVFPLAMNYL [CCND2] | 2.84 ± 0.23 | 2.89 ± 0.3 |  | 
5 | MTGTPKTQEGAKDLEVDMNKTEVT [ACSBG2] | 5.64 ± 0.35 | 5.68 ± 0.27 |  | 
6 | KIMGVEEEDDDDDDDDNLPQLKKE [ANKRD40] | 5.6 ± 0.24 | 5.46 ± 0.19 |  | 
7 | GSQIHDQFILRVSPDLEWHAACLK [ISL2] | 2.3 ± 0.43 | 2.66 ± 0.54 |  | 
8 | VRLQERTSGGLLSEAPNEKLFFVD [NOP53] | 3.5 ± 0.32 | 3.34 ± 0.33 |  | 
9 | KIEGHQDAVTAALLIPKEDGVITA [WDFY1] | 4.35 ± 0.23 | 4.4 ± 0.28 |  | 
10 | IPAAVLAGFTGSGPIQLWQFLLEL [ETS2] | 2.69 ± 0.62 | 2.5 ± 0.25 |  | 
11 | TLLSVLKREAGNLTKATAPDQKSS [SSNA1] | 2.69 ± 0.13 | 2.83 ± 0.3 |  | 
12 | FSQKHFPEVVQHEEFILLSQGEVE [KLHL12] | 3.44 ± 0.81 | 3.45 ± 0.33 |  | 
13 | MDGRWQCSCWAWFLLVLAVVAGDT [ADAMTSL2] | 2.62 ± 1 | 2.45 ± 0.52 |  | 
14 | AFLEPDETFIVPDSFLVALDMDDG [SPSB1] | 3.46 ± 0.25 | 3.65 ± 0.48 |  | 
15 | KLAKVYSYAHGWMFQGWNCGDYFP [CPN1] | 2.52 ± 0.43 | 2.52 ± 0.38 |  | 
16 | LTALLEKYTPSNKHGFSWAVPKFM [DLC1] | 2.6 ± 0.57 | 2.09 ± 0.2 |  | 
17 | MACHRCLVYLGDLSRYQNELAGVD [SMG5] | 2.64 ± 0.7 | 2.54 ± 0.55 |  | 
18 | RKSLFDDKAVEIEELTYIIKQDIN [STX5] | 2.9 ± 0.18 | 2.76 ± 0.31 |  | 
19 | DDLMGILCKSVLEIERAIKQTQCP [FEM1C] | 2.07 ± 0.22 | 2.46 ± 0.29 |  | 
20 | PRRESLLRGLCRPLRPLLGFRESD [C6orf223] | 2.36 ± 0.46 | 2.13 ± 0.43 |  | 
21 | EIATKPHEKIGFPAARRCHSCVQI [KLHDC10] | 2.43 ± 0.29 | 2.59 ± 0.2 |  | 
22 | ERSRDVVDEVSVSLRLWDTFGDHH [RHOBTB1] | 3.27 ± 0.2 | 3.32 ± 0.31 |  | 
23 | NSMPVDNRNHNEGMVTRCIIEVLS [CHGB] | 2.77 ± 0.14 | 2.59 ± 0.3 |  | 

Row | Sequence | protein stability index [1] | protein stability index [2] | protein stability index (treatment: DMSO, c terminus: native) | protein stability index (treatment: MLN4924 1 uM, 8 h, c terminus: native)
24 | QDEEDMFMVVDLLLGGDLRYHLQQ [STK32A] | 2.21 ± 0.18 | 2.1 ± 0.35 |  | 
25 | ASTSTPSSTLVRPIRSRRALPPLR [FAM189A2] | 4.16 ± 0.17 | 4.21 ± 0.21 |  | 
26 | YTVNFLEAKEGDLHRIEIPFKFHM [CARM1] |  | 3.15 ± 1.1 |  | 
27 | IRISMSHEEEPLGTAGPLALARDL [GMPPB] | 3 ± 0.053 | 3.27 ± 0.34 |  | 
28 | AVLRRIQLQPTSIEKEVFPIMAKE [GMPPB] | 2.52 ± 0.33 | 2.57 ± 0.36 |  | 
29 | SRSNSRSRSYSPRRSRGSPRYSPR [SRSF1] | 5.28 ± 0.26 | 5.56 ± 0.065 |  | 
30 | IQLIKTNKKHIHSRSTLECAYRTH [SMG5] | 2.38 ± 0.096 | 2.54 ± 0.1 |  | 
31 | QSGRHLQTHSNTIVVSLQSKLASM [STX5] | 2.79 ± 0.36 | 2.97 ± 0.28 |  | 
32 | CFPSTQKPTEPSVPVQPLLPESLA [FBF1] | 4.14 ± 0.23 | 4.16 ± 0.15 |  | 
33 | VQFVFDAVTDVIIKNNLKDCGLF [GNAI1] |  |  | 2.68 ± 0.81 | 2.61 ± 0.73
34 | KHLARQLEEKDRVLKKQDAFYKEQ [CHCHD3] | 4.33 ± 0.2 | 4.57 ± 0.24 |  | 
35 | ITHSTYSLPASSYSQDPVYANGGL [NOL4L] | 2.96 ± 0.32 | 3.18 ± 0.2 |  | 
36 | LISHVLEQNQEGDAAYRKALDLAR [AUH] | 3.38 ± 0.55 | 3.09 ± 0.19 |  | 
37 | YCKTSDGRVVPESQCQMETKPLAI [ADAMTSL2] | 3.94 ± 0.33 | 4.32 ± 0.11 |  | 
38 | SLFSLLIAAAVYIMDTVGNIWVCY [SLC19A2] | 2.94 ± 0.41 | 3.03 ± 0.72 |  | 
39 | ALVQEKIQKRNQRQSGDRRQLPPP [WAS] | 4.31 ± 0.24 | 4.59 ± 0.086 |  | 
40 | SMEGVRWAFSCGTWLPSRAEWLLA [AASDHPPT] | 2.65 ± 0.57 | 2.79 ± 0.52 |  | 
41 | FTLGTNAIIISTIVLDRALHIPMY [OR10K2] | 2.89 ± 0.82 | 2.87 ± 0.78 |  | 
42 | DDSDTQQVVVLVRDNGDPSLSSTA [PCDHGC5] | 4.76 ± 0.16 | 4.83 ± 0.22 |  | 
43 | KQNPSRQEVTKLQQQVKTNGAGVT [FBXO28] | 4.68 ± 0.2 | 4.47 ± 0.35 |  | 
44 | HESQQLATETQALAQRTQQDSTRT [TEKT4] | 5.41 ± 0.23 | 5.43 ± 0.074 |  | 
45 | KGCKVTLPEKPVKLASHTRDTTGV [FBF1] | 4.21 ± 0.24 | 4.58 ± 0.17 |  | 
